Biological target: MBP-DLC2 (dynein light chain-2 fused to maltose-binding protein) (UniProt Q96FJ2 1-89)
Assay: pull-down

- binding result: binds
B1: GST-MVaf1 (myosin-Va medial tail fragment 1, MYO5A 1276-1328 [+B], fused to glutathione-S-transferase) (domain or fragment)
chain: QKEAIQPKDDKNTMTDSTILLEDVQKMKDKGEIAQAYIGLKETNRSSALDYHE
